# In IntAct's records for PubMed 31243363:
# B1: Phospholipid-transporting ATPase DRS2 (Saccharomyces cerevisiae), P39524 (parent)
# chain: MNDDRETPPKRKPGEDDTLFDIDFLDDTTSHSGSRSKVTNSHANANYIPPSHVLPEETIDLDADDDNIENDVHENLFMSNNHDDQTSWNANRFDSDAYQPQSLRAVKPPGLFARFGNGLKNAFTFKRKKGPESFEMNHYNAVTNNELDDNYLDSRNKFNIKILFNRYILRKNVGDAEGNGEPRVIHINDSLANSSFGYSDNHISTTKYNFATFLPKFLFQEFSKYANLFFLCTSAIQQVPHVSPTNRYTTIGTLLVVLIVSAMKECIEDIKRANSDKELNNSTAEIFSEAHDDFVEKRWIDIRVGDIIRVKSEEPIPADTIILSSSEPEGLCYIETANLDGETNLKIKQSRVETAKFIDVKTLKNMNGKVVSEQPNSSLYTYEGTMTLNDRQIPLSPDQMILRGATLRNTAWIFGLVIFTGHETKLLRNATATPIKRTAVEKIINRQIIALFTVLIVLILISSIGNVIMSTADAKHLSYLYLEGTNKAGLFFKDFLTFWILFSNLVPISLFVTVELIKYYQAFMIGSDLDLYYEKTDTPTVVRTSSLVEELGQIEYIFSDKTGTLTRNIMEFKSCSIAGHCYIDKIPEDKTATVEDGIEVGYRKFDDLKKKLNDPSDEDSPIINDFLTLLATCHTVIPEFQSDGSIKYQAASPDEGALVQGGADLGYKFIIRKPNSVTVLLEETGEEKEYQLLNICEFNSTRKRMSAIFRFPDGSIKLFCKGADTVILERLDDEANQYVEATMRHLEDYASEGLRTLCLAMRDISEGEYEEWNSIYNEAATTLDNRAEKLDEAANLIEKNLILIGATAIEDKLQDGVPETIHTLQEAGIKIWVLTGDRQETAINIGMSCRLLSEDMNLLIINEETRDDTERNLLEKINALNEHQLSTHDMNTLALVIDGKSLGFALEPELEDYLLTVAKLCKAVICCRVSPLQKALVVKMVKRKSSSLLLAIGDGANDVSMIQAAHVGVGISGMEGMQAARSADIAVGQFKFLKKLLLVHGSWSYQRISVAILYSFYKNTALYMTQFWYVFANAFSGQSIMESWTMSFYNLFFTVWPPFVIGVFDQFVSSRLLERYPQLYKLGQKGQFFSVYIFWGWIINGFFHSAIVFIGTILIYRYGFALNMHGELADHWSWGVTVYTTSVIIVLGKAALVTNQWTKFTLIAIPGSLLFWLIFFPIYASIFPHANISREYYGVVKHTYGSGVFWLTLIVLPIFALVRDFLWKYYKRMYEPETYHVIQEMQKYNISDSRPHVQQFQNAIRKVRQVQRMKKQRGFAFSQAEEGGQEKIVRMYDTTQKRGKYGELQDASANPFNDNNGLGSNDFESAEPFIENPFADGNQNSNRFSSSRDDISFDI
# partner: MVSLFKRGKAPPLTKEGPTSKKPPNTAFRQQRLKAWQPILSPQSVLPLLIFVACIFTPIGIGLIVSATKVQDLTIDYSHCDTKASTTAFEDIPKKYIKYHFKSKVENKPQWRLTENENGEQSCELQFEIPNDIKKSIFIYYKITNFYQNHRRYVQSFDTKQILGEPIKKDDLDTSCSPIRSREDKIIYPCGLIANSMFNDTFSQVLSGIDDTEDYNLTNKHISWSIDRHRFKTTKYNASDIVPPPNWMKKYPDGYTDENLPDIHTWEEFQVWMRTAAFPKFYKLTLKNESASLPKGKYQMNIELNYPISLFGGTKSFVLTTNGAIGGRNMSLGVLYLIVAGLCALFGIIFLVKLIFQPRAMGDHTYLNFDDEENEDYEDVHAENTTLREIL
# Variants of: B1
# Conditions: with cdc50_yeast CDC50, P25656
row,effect of a mutation on the interaction,Variant
1,with no effect,H1236A
2,with no effect,Y1235A
3,with no effect,Y1235F
